# ± gives the uncertainty stated by the source.
# Experiment: self-splicing fitness, log relative to wild type (ln ratio); higher = more splicing; Tetrahymena group I intron in knt gene, E. coli kanamycin selection, DiMSum; sequences stand for … in CUCUCU…GGAGGGAAAAGUUAUCAGGCAUGCACCUGGUAGCUAGUCUUUAAACCAAUAGAUUGCAUCGGUUUAAAAGGCAAGACCGUCAAAUUGCGGGAAAGGGGUCAACAGCCGUUCAGUACCAAGUCUCAGGGGAAACUUUGAGAUGGCCUUGCAAAGGGUAUGGUAAUAAGCUGACGGACAUGGUCCUAACCACGCAGCCAAGUCCUAAGUCAACAGAUCUUCUGUUGAUAUGGAUGCAGUUCACAGACUAAAUGUCGGUCGGGGAAGAUGUAUUCUUCUCAUAAGAUAUAGUCGGACCUCUCCUUAAUGGGAGCUAGCGGAUGAAGUGAUGCAACACUGGAGCCGCUGGGAACUAAUUUGUAUGCGAAAGUAUAUUGAUUAGUUUUGGAGUACUCGUGGUCG
# How it was run: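 DiMSum derived fitness as the error-weighted combination of fold changes across replicates, kanamycin versus no kanamycin, normalised to wild type. E. coli BL21(DE3) held the library, which randomised all eight P1ex-region intron nucleotides within the knt kanamycin-resistance gene on pET-22b(+). Six replicate transformations grew overnight at 37°C or 30°C on LB agar with or without 25 μg/mL kanamycin, also containing 100 μg/mL carbenicillin, 50 μM IPTG and 0.2% rhamnose, and pooled colonies were amplicon-sequenced on an Illumina HiSeq 2500.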
Sequence,self-splicing fitness (ln) (30 °C),self-splicing fitness (ln) (37 °C)
AGUAAGCAAUAUUACGAUAA,-2.23 ± 0.32,-1.4 ± 0.19
UCCCAGCAAUAUUACGAAAG,-3.84 ± 0.33,-3.06 ± 0.17
GACGAGCAAUAUUACGUCUU,-2.63 ± 0.21,-1.01 ± 0.17
UUUAAGCAAUAUUACGUCGG,-0.492 ± 0.079,-0.762 ± 0.089
GCUUAGCAAUAUUACGGUCG,-1.78 ± 0.12,-1.41 ± 0.16
AAUAAGCAAUAUUACGGUGU,-2.59 ± 0.12,-0.711 ± 0.12
GAGUAGCAAUAUUACGAAGG,–,-2.74 ± 0.44
ACCGAGCAAUAUUACGCGAA,-2.33 ± 0.32,-3.17 ± 0.4
GGAAAGCAAUAUUACGGGUU,-2.99 ± 0.13,-0.727 ± 0.11
GGCGAGCAAUAUUACGCCGA,-2.65 ± 0.18,-1.45 ± 0.091
UCGCAGCAAUAUUACGGACG,-1.44 ± 0.15,-0.806 ± 0.13
ACGAAGCAAUAUUACGGAUA,-3.55 ± 0.32,-2.43 ± 0.23
CCCAAGCAAUAUUACGUCGC,-3.94 ± 0.28,-2.38 ± 0.16
ACAAAGCAAUAUUACGGUCU,-0.435 ± 0.056,0.237 ± 0.079
GCCAAGCAAUAUUACGGUCU,-2.26 ± 0.12,-0.79 ± 0.12
UUGGAGCAAUAUUACGGGAU,–,-2.77 ± 0.4
GAUCAGCAAUAUUACGCCUA,0.00222 ± 0.13,0.0251 ± 0.12
UGAGAGCAAUAUUACGAGGG,-3.68 ± 0.35,-1.09 ± 0.36
GCUUAGCAAUAUUACGAGUU,-1.62 ± 0.091,-0.362 ± 0.11
CACCAGCAAUAUUACGUUAG,-0.512 ± 0.048,0.279 ± 0.064
GAGCAGCAAUAUUACGCACA,-0.256 ± 0.21,-0.415 ± 0.14
GGCUAGCAAUAUUACGUUGU,-1.59 ± 0.083,-0.434 ± 0.11
GGGCAGCAAUAUUACGCCGG,-1.51 ± 0.11,0.118 ± 0.14
AACAAGCAAUAUUACGAAGU,-2.46 ± 0.085,-1.29 ± 0.099

Sequence,self-splicing fitness (ln) (30 °C),self-splicing fitness (ln) (37 °C)
GCGGAGCAAUAUUACGGGGC,-2.48 ± 0.48,-1.65 ± 0.35
GACAAGCAAUAUUACGGCAG,-4.14 ± 0.31,-3.08 ± 0.35
UGCUAGCAAUAUUACGAUCC,-0.317 ± 0.41,–
UGUUAGCAAUAUUACGACCU,-0.58 ± 0.16,0.317 ± 0.2
CGACAGCAAUAUUACGGUCC,-1.13 ± 0.11,-0.69 ± 0.14
CCCCAGCAAUAUUACGAAAU,-3.82 ± 0.17,-2.25 ± 0.18
GCCCAGCAAUAUUACGGGAA,0.0209 ± 0.051,0.313 ± 0.06
AUCUAGCAAUAUUACGACAG,-3.33 ± 0.3,-2.68 ± 0.31
GGGAAGCAAUAUUACGUGCU,-1.69 ± 0.12,-0.273 ± 0.11
UUAAAGCAAUAUUACGAACA,-0.0579 ± 0.13,0.708 ± 0.18
UGAUAGCAAUAUUACGCCGU,-4.2 ± 0.43,-2.01 ± 0.2
AGGCAGCAAUAUUACGCAAC,-0.42 ± 0.21,-1.41 ± 0.34
UUAUAGCAAUAUUACGAGCA,-2.02 ± 0.17,-1.49 ± 0.17
GCUAAGCAAUAUUACGUGGG,-2.99 ± 0.14,-1.61 ± 0.13
GUGGAGCAAUAUUACGCCGA,-3.41 ± 0.43,-1.25 ± 0.28
AAAGAGCAAUAUUACGUAUA,-3.45 ± 0.37,-1.89 ± 0.32
CUCGAGCAAUAUUACGUUGU,-4.17 ± 0.18,-2.07 ± 0.14
CAAAAGCAAUAUUACGGAAU,-3.21 ± 0.21,-2.56 ± 0.17
AGGGAGCAAUAUUACGCUUA,-3.44 ± 0.24,-1.62 ± 0.21
AAUGAGCAAUAUUACGUGGU,-2.41 ± 0.11,-3.49 ± 0.23
GUAGAGCAAUAUUACGGCAC,-0.941 ± 0.4,–
CGACAGCAAUAUUACGUGGG,-3.19 ± 0.14,-1.54 ± 0.1
ACAGAGCAAUAUUACGCUUG,-1.62 ± 0.12,-1.63 ± 0.17
GCCAAGCAAUAUUACGUCAA,-2.75 ± 0.34,-1.97 ± 0.22
